Assay results: article PMC5766548
Each block holds one substance with its values, some of them ahead of it.

Legend:
enhanced GFP (EGFP) = experiment: AUC; sedimentation velocity; 0.33, 0.65 and 1.3 mg mL^-1; 20 mM Tris pH 7.5, 150 mM NaCl; 50,000 rpm, 20 °C; absorbance at 280 nm; c(s) distributions and weight average sedimentation coefficients against concentration
[1] = molecular target: superfolder GFP (sfGFP) [GFP: P42212]; experiment: SEC-SAXS; in-line Superdex 75 10/300 GL; 50 µL loaded at approximately 50 mg mL^-1 (> approximately 10 mg mL^-1 after dilution on the column); 25 mM Tris pH 7.5, 150 mM NaCl; profiles compared with CRYSOL curves of monomer and dimer of the usGFP crystal structure
[2] = molecular target: ultra-stable GFP (usGFP) [GFP: P42212]; experiment: as above

stoichiometry N (enhanced GFP (EGFP)): 2
Substance: enhanced GFP (EGFP)

stoichiometry N [1]: 2
Substance: superfolder GFP (sfGFP) (from UniProt P42212 1-238)

stoichiometry N [2]: 2
Substance: ultra-stable GFP (usGFP) (from UniProt P42212 1-238)
